Read-outs that look alike come from different tables or passages of the source. Where only a bound is given, the exact number is not on record here.

Test [1] addresses T1, h/m apical domain chimera (SEQ ID NO:112) (human/mouse chimera).
T1 construct: also called chimeric TfR1 consisting of human apical domain grafted on mouse TfR1 ectodomain
T1 chain: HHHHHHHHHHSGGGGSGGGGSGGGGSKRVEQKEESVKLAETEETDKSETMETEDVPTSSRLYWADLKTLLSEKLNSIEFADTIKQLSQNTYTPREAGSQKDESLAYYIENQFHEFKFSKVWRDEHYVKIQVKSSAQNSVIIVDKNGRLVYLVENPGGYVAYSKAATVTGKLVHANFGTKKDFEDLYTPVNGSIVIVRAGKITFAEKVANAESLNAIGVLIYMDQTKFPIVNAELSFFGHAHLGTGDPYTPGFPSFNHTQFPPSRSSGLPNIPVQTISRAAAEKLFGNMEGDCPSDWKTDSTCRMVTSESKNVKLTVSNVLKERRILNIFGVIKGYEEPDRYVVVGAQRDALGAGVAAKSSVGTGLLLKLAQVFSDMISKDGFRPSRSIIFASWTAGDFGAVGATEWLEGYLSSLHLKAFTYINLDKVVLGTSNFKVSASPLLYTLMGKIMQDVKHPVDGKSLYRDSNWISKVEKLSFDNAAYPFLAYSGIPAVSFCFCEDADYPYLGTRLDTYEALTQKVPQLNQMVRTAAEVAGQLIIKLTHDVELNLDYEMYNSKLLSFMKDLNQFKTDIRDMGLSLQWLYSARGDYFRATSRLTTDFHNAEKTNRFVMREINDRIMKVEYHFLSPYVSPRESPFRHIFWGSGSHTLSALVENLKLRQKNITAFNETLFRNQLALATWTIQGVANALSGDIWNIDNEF
The experiment in a line: indirect ELISA: plate coated with 1 µg/ml h/m apical domain chimera, mouse IgG titrated, anti-mouse IgG-HRP; x axis printed as 'TfR (ng/ml)'. As for the experimental part: Plasma samples serially diluted from a starting dilution of 1/450 or hybridoma supernatants diluted 1/2 were added to the plates (50 μl/well; dilution buffer: PBS with 0.1% BSA and 0.05% TWEEN®-20) and incubated for 2 h at room temperature and then the plates were washed four times. […] After another wash (as above), 50 μl/well TMB substrate (K-Blue® Aqueous, Neogen) was added, and the reaction was stopped after 10-15 min with 50 μl/well of 0.5 M H₂SO₄. The optical density at 450 nm was read using a plate reader (Tecan). The endpoint titers were defined as the dilution above the average of the blank wells (background) plus 3 standard deviations of the blank wells.
In the ELISA experiment, human, mouse or three different chimeric TfR1 receptors were used to coat ELISA plates (FIGS. 30A-30E). The ELISA protocol was slightly modified as follows from the indirect ELISA described in Example 15. […] The coated plates were then blocked. Dilution series of mouse IgG of the analyzed antibodies were prepared in PBS and incubated on the ELISA plates. Unbound antibodies were then washed off before incubating wells with a HRP-conjugated secondary, anti-mouse-IgG for 1 h. Plates were then washed again before addition of HRP substrate TMB for development and detection of antibody binding to the wells. TMB development was stopped by adding 0.5 M H₂SO₄ to the wells and ELISA responses measured as the OD at 450 nm in an ELISA plate reader.

Test [2] deals with T2, AβpE3-40 monomer (UniProt P05067 674-711, pyroglutamate at position 3 (N-terminal residue)).
T2 construct: range 3-40 (Aβ numbering); Synthetic peptide (Bachem/Anaspec), verified monomeric by SEC; also called monomeric AβpE3-40
T2 sequence (P05067 674-711): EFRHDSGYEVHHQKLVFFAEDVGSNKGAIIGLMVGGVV
The experiment in a line: SPR, antibody immobilised, monomer injected, 1:1 fit. Here is the method:
Single cycle kinetics with the binding molecules immobilized on a CM5 chip was used to measure binding to the AβpE3-40 monomer. For the measurements, 5 μg/ml of analyte binding molecule was immobilized on the chip. […] Regeneration of the surface between cycles was done by injecting 30 μl 3 M MgCl₂ (Cytiva, cat. No. 29234600). The binding data was fitted to a 1:1 interaction model.

The target of test [3] is T3, truncated hTfR1 of SEQ ID NO:122 (human, UniProt P02786 122-760).
T3 construct: also called human TfR1; Human TfR1
T3 sequence (P02786 other isoform, or with tags, fused parts or gaps limits assumed): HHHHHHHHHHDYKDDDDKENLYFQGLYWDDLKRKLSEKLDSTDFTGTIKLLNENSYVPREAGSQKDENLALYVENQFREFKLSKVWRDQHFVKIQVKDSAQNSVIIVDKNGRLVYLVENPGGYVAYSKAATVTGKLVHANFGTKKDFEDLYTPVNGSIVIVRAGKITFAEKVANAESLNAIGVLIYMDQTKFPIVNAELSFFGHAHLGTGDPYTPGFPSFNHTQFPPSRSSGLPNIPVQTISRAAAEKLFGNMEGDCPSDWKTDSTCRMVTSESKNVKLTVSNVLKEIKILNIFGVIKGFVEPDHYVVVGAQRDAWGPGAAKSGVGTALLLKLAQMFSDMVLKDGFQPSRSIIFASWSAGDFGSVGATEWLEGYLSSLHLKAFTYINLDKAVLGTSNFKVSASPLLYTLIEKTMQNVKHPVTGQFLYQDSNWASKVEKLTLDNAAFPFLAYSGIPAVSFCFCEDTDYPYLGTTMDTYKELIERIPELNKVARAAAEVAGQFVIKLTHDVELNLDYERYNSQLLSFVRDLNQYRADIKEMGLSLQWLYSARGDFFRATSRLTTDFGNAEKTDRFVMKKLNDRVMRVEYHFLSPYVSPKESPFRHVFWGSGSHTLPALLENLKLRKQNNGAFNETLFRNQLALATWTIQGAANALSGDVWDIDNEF
The experiment in a line: SPR, FLAG-captured TfR1, bispecific injected, 1:1 fit.

The target of test [4] is T2, AβpE3-40 monomer. The experiment in a line: inhibition ELISA, antigen titrated in solution, AβpE3-40 coat. As for the experimental part: (§1) The tested molecules were incubated at a fixed concentration (0.1 μg/ml) with titrating concentrations of the different AβpE3 antigens. After incubation for 45 min at 900 rpm to reach equilibrium, the samples were added to a blocked and washed ELISA plate with an AβpE3-40 coat (0.5 μM). The samples were incubated on the plate for 25 min without shaking followed by washing, incubation with detection antibody, another washing step and finally incubation with alkaline phosphatase substrate.

The target in test [5] is T4, AβpE3-42 protofibrils (UniProt P05067 674-713, pyroglutamate at position 3 (N-terminal residue)).
T4 construct: range 3-42 (Aβ numbering); Soluble aggregates made from AβpE3-42 peptide, purified in the void peak of SEC; also called AβpE3-42 PF
T4 sequence (P05067 674-713): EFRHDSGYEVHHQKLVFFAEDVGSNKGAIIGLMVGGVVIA
Described as above. As for the experimental part:
as §1

Test [6] has as its target T2, AβpE3-40 monomer. The experiment in a line: SPR, antibody immobilised, monomer injected, 1:1 fit. Here is the method: Single cycle kinetics with the antibodies immobilized on a CM5 chip was used to measure the binding of the antibodies to the AβpE3-40 monomer. For the measurements, 5 μg/ml of analyte antibody was immobilized on the chip. […] Regeneration of the surface between cycles was done by injecting 30 μl 3 M MgCl₂. The binding data was fitted to a 1:1 interaction model.
(§2) In all SPR experiments, 1×HBS-EP+ (Cytiva, cat. no. BR100669) was used to dilute antibodies and target antigens. Experiments were performed at 25° C.
(§3) Affinity evaluation and KD determination by surface plasmon resonance: Binding interactions between antigens and antibodies were evaluated by SPR using a Biacore 8K instrument (Cytiva) according to standard procedures.
The source holds these as a separate data set. For orientation: Surface plasmon resonance follows binding to a sensor surface in real time, without labels.

The target of the next test is T5, Aβ3-28 monomer (UniProt P05067 674-699).
T5 construct: range 3-28 (Aβ numbering)
T5 sequence (P05067 674-699): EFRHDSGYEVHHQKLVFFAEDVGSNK
The experiment in a line: inhibition ELISA, antigen titrated in solution, AβpE3-40 coat. Here is the method:
(§4) The humanized antibodies were incubated at a fixed concentration (0.5 μg/ml) with titrating concentrations of the different Aβ antigens. After incubation for 45 min at 900 rpm to reach equilibrium, the antibody-Aβ samples were added to a blocked and washed ELISA plate with an AβpE3-40 coat (0.5 μM). The samples were incubated on the plate for 25 min without shaking followed by washing, incubation with detection antibody, another washing step and finally incubation with alkaline phosphatase substrate.
For orientation: ELISA stands for enzyme-linked immunosorbent assay.

The target in another test is T6, AβpE3-28 monomer (UniProt P05067 674-699, pyroglutamate at position 3 (N-terminal residue)).
T6 construct: range 3-28 (Aβ numbering)
The description is as above. Here is the method:
as §4

Test [7] concerns the target T2, AβpE3-40 monomer. The description is as above. The source holds these as a separate data set.
A further test addresses T7, Aβ1-40 monomer (UniProt P05067 672-711).
T7 construct: range 1-40 (Aβ numbering)
Described as above.

For test [8], the target named is T4, AβpE3-42 protofibrils. Described as above. The source holds these as a separate data set.
The next test concerns the target T8, Aβ1-42 protofibrils (UniProt P05067 672-713).
T8 construct: range 1-42 (Aβ numbering); Soluble aggregates made from Aβ1-42 monomer
The description is as above.

For test [9], the target named is T4, AβpE3-42 protofibrils. The experiment in a line: SPR, protofibrils immobilised, antibody injected, 1:1 fit, apparent. As for the experimental part: (§5) Single cycle kinetics was also used to measure binding of the antibodies to AβpE3-42 protofibrils. […] Regeneration of the surface between cycles was done by injecting 30 μl 10 mM glycine-HCl pH 1.7. The binding data was fitted to a 1:1 interaction model.
as §2, §3

In test [10] the target is T4, AβpE3-42 protofibrils. The experiment in a line: SPR, protofibrils immobilised, antibody injected, 1:1 fit, apparent; binding to AβpE3-42 protofibrils; KD in pM. Here is the method: as §5, §2, §3

T7 sequence (P05067 672-711): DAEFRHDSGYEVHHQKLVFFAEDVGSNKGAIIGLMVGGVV
T8 sequence (P05067 672-713): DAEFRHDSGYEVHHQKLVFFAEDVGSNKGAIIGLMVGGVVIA

B1: 26D3 (antibody, V domains shown)
VH: EVQLQQFGVELVKPGASVKISCKASGYIFTDYNMDWVKQSHGKSLEWIGDINPDYDTTSYNEKFKGKATLTVDKSSSTAYMELRSLTSEDTAVYYCARGGYSGSSYYHPMDYWGQGTSVTVSS
VL: DIVMSQSPSSLAVSVGEKITMSCKSSQSLLYSTNQKNYLAWYQQKPGQSPELLIYWASTRESGVPDRFTGSGSGTDFTLTISNVRAEDLAVYYCQQYFIYPRTFGGGTKLEIK
notes: also called mouse antibody 26D3; clone 26D3
For B1, the binding result in [1] is recorded as “no binding (tested: about 600 ng/ml)”.

B2: BA002 (bispecific antibody, human IgG1, kappa)
light: EIVLTQSPLSLSVTLGQSASISCRSSQSLLDSNGKTYLHWFILRPGQSPRRLIYLVSILDSGVPDRFSGSGSGTDFTLKISRVEAEDVGVYYCVQGTHFPFTFGSGTKLEIKRTVAAPSVFIFPPSDEQLKSGTASVVCLLNNFYPREAKVQWKVDNALQSGNSQESVTEQDSKDSTYSLSSTLTLSKADYEKHKVYACEVTHQGLSSPVTKSFNRGEC
heavy 1: not shown
heavy 2: EVQLVQSGAEVVKPGASVRLSCKASGYSFTGFTMNWVRQALGQGLEWMGLINPYNGVTTYNQKFKGRLTMTRDMSTRTVYMDLSSLTYEDTAVYYCTREGNWEGVYWGQGTLVTVSSASTKGPSVFPLAPSSKSTSGGTAALGCLVKDYFPEPVTVSWNSGALTSGVHTFPAVLQSSGLYSLSSVVTVPSSSLGTQTYICNVNHKPSNTKVDKKVEPKSCDKTHTCPPCPAPELLGGPSVFLFPPKPKDTLMISRTPEVTCVVVDVSHEDPEVKFNWYVDGVEVHNAKTKPREEQYNSTYRVVSVLTVLHQDWLNGKEYKCAVSNKALPAPIEKTISKAKGQPREPQVYTLPPCRDELTKNQVSLWCLVKGFYPSDIAVEWESNGQPENNYKTTPPVLDSDGSFFLYSKLTVDKSRWQQGNVFSCSVMHEALHNHYTQKSLSLSPGGGGGSGGGGSGGGGSGGGGSDIQMTQSPSSVSASVGDRVTITCKSSQSLLASTNQKNYLAWYQQKPGKAPKLLIYWASTRESGVPSRFSGSGSGTDFTLTISSLQPEDFATYYCQQYFIYPRTFGCGTKVEIKGGGGSGGGGSGGGGSGGGGSEVQLVQSGAEVKKPGSSVKVSCKASGYIFTDYNMDWVRQAPGQCLEWIGDINPDYDTTSYNEKFKGRATLTVDKSTSTAYMELSSLRSEDTAVYYCARGGYSGSSYYHPMDYWGQGTLVTVSS
The koff is the rate constant with which the complex falls apart. As a reminder, the kon is the rate constant with which the complex forms. One may read the IC50 as the concentration that gives 50% inhibition. For the molecule B2, in the test with AβpE3-40 monomer [2], the Kd came out at 2.38 nM, the off-rate constant (koff) stood at 0.000127 s⁻¹ and the kon stood at 53500 M⁻¹ s⁻¹. In test [3], this molecule showed a Kd of 35.6 nM, a koff of 0.0031 s⁻¹ and a kon of 87000 M⁻¹ s⁻¹. Moreover, the IC50 with AβpE3-40 monomer [4] stood at 0.8 nM. Besides, in the test with AβpE3-42 protofibrils [5], the IC50 amounted to 3.2 nM.

B3: H2L7-K12V/R83T (antibody, human IgG1, kappa)
heavy: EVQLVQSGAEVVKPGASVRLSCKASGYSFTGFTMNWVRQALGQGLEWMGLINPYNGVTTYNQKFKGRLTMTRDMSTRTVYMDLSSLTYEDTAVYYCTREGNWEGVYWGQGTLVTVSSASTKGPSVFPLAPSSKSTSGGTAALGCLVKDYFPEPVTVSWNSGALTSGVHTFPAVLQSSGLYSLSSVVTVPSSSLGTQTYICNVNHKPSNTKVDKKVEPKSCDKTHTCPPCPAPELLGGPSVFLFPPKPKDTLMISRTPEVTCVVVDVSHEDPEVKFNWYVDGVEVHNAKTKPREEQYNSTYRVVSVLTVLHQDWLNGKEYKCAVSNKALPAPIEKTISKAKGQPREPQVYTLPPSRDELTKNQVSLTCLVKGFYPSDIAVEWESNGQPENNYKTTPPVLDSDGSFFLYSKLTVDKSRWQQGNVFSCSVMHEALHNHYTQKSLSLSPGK
light: EIVLTQSPLSLSVTLGQSASISCRSSQSLLDSNGKTYLHWFILRPGQSPRRLIYLVSILDSGVPDRFSGSGSGTDFTLKISRVEAEDVGVYYCVQGTHFPFTFGSGTKLEIKRTVAAPSVFIFPPSDEQLKSGTASVVCLLNNFYPREAKVQWKVDNALQSGNSQESVTEQDSKDSTYSLSSTLTLSKADYEKHKVYACEVTHQGLSSPVTKSFNRGEC
notes: VH variant of H2L7; VL and constant domains identical to H2L7
B3: the Kd with AβpE3-40 monomer [6] was determined as 2.2 nM; with AβpE3-42 protofibrils [10], 0.2 nM. The results for the koff with AβpE3-40 monomer [6] and in the test with AβpE3-42 protofibrils [9] were 0.00012 s⁻¹ and 1.62e-05 s⁻¹, respectively. Besides, the kon with AβpE3-40 monomer [6] is 56200 M⁻¹ s⁻¹; with AβpE3-42 protofibrils [9] it was 81100 M⁻¹ s⁻¹. Further, the IC50 with Aβ3-28 monomer is 2260 nM; with AβpE3-28 monomer, 5 nM; with AβpE3-40 monomer [7] it was 2.27 nM; with Aβ1-40 monomer, more than 500 nM; in the test with AβpE3-42 protofibrils [8], 3.71 nM; with Aβ1-42 protofibrils it was more than 132 nM.

These data come from US20250388664A1 (BIOARCTIC, published 2025).
